Molecular target: T1, human CD3 (human, UniProt P07766 23-207; P09693 23-182; P04234 22-171; P20963 22-164)
T1 construct: whole, on cells; SP34 is described as an anti-human CD3e antibody; also called human TCR/CD3 complex; CD3 on human pan-T cells
Assay: flow cytometry on human pan-T cells; MFI at 7.4 or 10 µg/ml relative to PR000260
From the text: The flow cytometryFACS was used to analyse the binding of the CD3 antibody to CD3-expressing cells, where the CD3-expressing cells could be: CHOK1 cells overexpressing human CD3 or HEK 293 cells (plasmids encoding the ORF of γ, δ, ε, and ζ chains of human-derived CD3 and plasmids encoding the ORF of α and β chains of human TCR were co-transfected with host cells CHOK1 (ATCC, CCL-61) or HEK293 (ATCC, CRL-1573) to construct stable cell lines expressing the structure of the human TCR/CD3 complex); CHOK1 or HEK293 cells overexpressing cynomolgus monkey CD3; human pan-T cells (isolated with the human pan-T cell isolation kit (Miltenyi, #130-096-535) from PBMC); cynomolgus monkey pan-T cells. Specifically, the collected cells were washed twice with PBS containing 2% FBS (FACS buffer), and resuspended with FACS buffer, divided into 96 well plates with 1×10⁵ cells per well, centrifuged at 500 g for 5 minutes. The supernatant was discarded, and 100 μl of pre-gradient diluted CD3 antibody was added, then incubating for 1 hour at room temperature and washing twice with FACS buffer. The cells were resuspended with FACS buffer diluted with secondary antibody Alexa Fluor 488 AffiniPure Goat Anti-Human IgG, Fcγ fragment specific (Jackson ImmunoResearch, #109-545-098), then incubated at room temperature in the dark for 30 minutes. The cells were washed twice with FACS buffer, and resuspended with 200 μl FACS buffer. The fluorescent luminescence signal value were read by flow cytometry (BD FACS CANTOII or ACEA NovoCyte), and the resulted data were processed and analyzed by software FlowJo v10 (FlowJo, LLC). The software GraphPad Prism 8 was used for data processing and graphical analysis, and parameters such as binding curves and EC50 values can be obtained by four-parameter nonlinear fitting.
FIG. 7(A) to (G) show the binding ability of the CD3 antibodies obtained in the Example 4.2 (including PR000260 and its mutants) to human pan-T cells, respectively. The fluorescence intensity MFI of the CD3 antibody binding to human pan-T cells and the relative ratio relative to the initial antibody PR000260 were calculated when the antibody concentration was 7.4 or 10 μg/ml.

T1 sequence (P07766 23-207, chain 1 of 4): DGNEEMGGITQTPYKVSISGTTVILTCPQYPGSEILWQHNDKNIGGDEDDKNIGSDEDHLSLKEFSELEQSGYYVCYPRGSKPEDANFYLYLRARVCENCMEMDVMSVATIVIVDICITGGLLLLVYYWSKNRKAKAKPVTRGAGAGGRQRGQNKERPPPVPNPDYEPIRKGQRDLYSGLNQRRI
T1 sequence (P09693 23-182, chain 2 of 4): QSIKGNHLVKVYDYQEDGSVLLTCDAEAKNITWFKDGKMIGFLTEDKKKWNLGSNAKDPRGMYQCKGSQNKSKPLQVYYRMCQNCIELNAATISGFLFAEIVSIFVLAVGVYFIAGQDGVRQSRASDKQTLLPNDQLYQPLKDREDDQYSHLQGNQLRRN
T1 sequence (P04234 22-171, chain 3 of 4): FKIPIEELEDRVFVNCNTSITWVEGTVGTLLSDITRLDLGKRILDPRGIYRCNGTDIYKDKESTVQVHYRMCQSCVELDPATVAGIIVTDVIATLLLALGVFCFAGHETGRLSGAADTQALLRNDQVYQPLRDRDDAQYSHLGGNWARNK
T1 sequence (P20963 22-164, chain 4 of 4): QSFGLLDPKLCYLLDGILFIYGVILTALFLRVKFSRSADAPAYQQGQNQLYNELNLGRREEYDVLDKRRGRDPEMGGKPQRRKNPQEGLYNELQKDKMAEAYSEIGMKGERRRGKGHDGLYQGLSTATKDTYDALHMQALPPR

B1: PR000511 (antibody, human IgG1, lambda, L234A L235A, V domains shown)
VH: EVQLLESGGGLVQPGGSLRLSCAASGFTFNTYAMNWVRQAPGKGLEWVSRIRSKYNNYATYYADSVKDRFTISRDDSKSTLYLQMNSLRAEDTAVYYCVRHGNFGNSYVSWFAYWGQGTLVTVSS
VL: QAVVTQEPSLTVSPGGTVTLTCRSSTGAVTTSNYANWVQQKPGQAPRGLIGGTNKRAPWTPARFSGSLLGDKAALTLLGAQPEDEAEYFCALWYSNLWVFGGGTKLTVLG
notes: humanized SP34 variant, IgG1 LALA; also called VH3231/VL7461 IgG
- binding result: binds

B2: PR000512 (antibody, human IgG1, lambda, L234A L235A, V domains shown)
VH: EVQLVESGGGLVQPGGSLKLSCAASGFTFNTYAMNWVRQASGKGLEWVGRIRSKYNNYATYYADSVKDRFTISRDDSKSTLYLQMNSLKTEDTAVYYCVRHGNFGNSYVSWFAYWGQGTLVTVSS
VL: QAVVTQEPSLTVSPGGTVTLTCRSSTGAVTTSNYANWVQQKPGQAPRGLIGGTNKRAPWTPARFSGSLLGDKAALTLLGAQPEDEAEYFCALWYSNLWVFGGGTKLTVLG
notes: humanized SP34 variant, IgG1 LALA; also called VH3731/VL7461 IgG
- binding result: binds

B3: PR002742 (antibody, human IgG1, lambda, L234A L235A, V domains shown)
VH: EVQLVESGGGLVQPGGSLKLSCAASGFTFNTYAMNWVRQASGKGLEWVGRIRSKYNNYATYYADSVKDRFTISRDDSKNTAYLQMNSLKTEDTAVYYCTRHGNFGNSYVSWFAYWGQGTLVTVSS
VL: QAVVTQEPSLTVSPGGTVTLTCRSSTGAVTTSNYANWVQQKPGQAPRGLIGGTNKRAPWTPARFSGSLLGDKAALTLLGAQPEDEAEYFCALWYSNLWVFGGGTKLTVLG
notes: humanized SP34 variant, IgG1 LALA; also called VH3730/VL7461 IgG
- binding result: binds

B4: PR001848 (antibody, human IgG1, lambda, L234A L235A, V domains shown)
VH: EVQLLESGGGLVQPGGSLRLSCAASGFTFSTYAMNWVRQAPGKGLEWVSRIRSKYNNYATYYADSVKDRFTISRDDSKSTLYLQMNSLRAEDTAVYYCVRHGNFGNSYVSWFAYWGQGTLVTVSS
VL: QAVVTQEPSLTVSPGGTVTLTCRSSTGAVTTSNYANWVQQKPGQAPRGLIGGTNKRAPWTPARFSGSLLGDKAALTLLGAQPEDEAEYFCALWYSNLWVFGGGTKLTVLG
notes: humanized SP34 variant, IgG1 LALAPG; also called VH3232/VL7461 IgG
- binding result: binds

B5: PR002834 (antibody, human IgG1, lambda, L234A L235A, V domains shown)
VH: EVQLLESGGGLVQPGGSLRLSCAASGFTFSTYAMNWVRQAPGKGLEWVSRIRSKYNNYATYYADSVKDRFTISRDDSKSTLYLQMNSLRAEDTAVYYCAKHGNFGNSYVSWFAYWGQGTLVTVSS
VL: QAVVTQEPSLTVSPGGTVTLTCRSSTGAVTTSNYANWVQQKPGQAPRGLIGGTNKRAPWTPARFSGSLLGDKAALTLLGAQPEDEAEYFCALWYSNLWVFGGGTKLTVLG
notes: humanized SP34 variant, IgG1 LALAPG; also called VH3235/VL7461 IgG
- binding result: binds

B6: PR002469 (antibody, human IgG1, lambda, L234A L235A, V domains shown)
VH: EVQLLESGGGLVQPGGSLRLSCAASGFTFNTYAMNWVRQAPGKGLEWVSRIRSKYNNYATYYADSVKDRFTISRDNSKNTLYLQMNSLRAEDTAVYYCAKHGNFGNSYVSWFAYWGQGTLVTVSS
VL: QAVVTQEPSLTVSPGGTVTLTCRSSTGAVTTSNYANWVQQKPGQAPRGLIGGTNKRAPWTPARFSGSLLGDKAALTLLGAQPEDEAEYFCALWYSNLWVFGGGTKLTVLG
notes: humanized SP34 variant, IgG1 LALA; also called VH3230/VL7461 IgG
- binding result: binds

B7: PR002833 (antibody, human IgG1, lambda, L234A L235A, V domains shown)
VH: EVQLLESGGGLVQPGGSLRLSCAASGFTFSTYAMNWVRQAPGKGLEWVSRIRSKYNNYATYYADSVKDRFTISRDNSKNTLYLQMNSLRAEDTAVYYCVRHGNFGNSYVSWFAYWGQGTLVTVSS
VL: QAVVTQEPSLTVSPGGTVTLTCRSSTGAVTTSNYANWVQQKPGQAPRGLIGGTNKRAPWTPARFSGSLLGDKAALTLLGAQPEDEAEYFCALWYSNLWVFGGGTKLTVLG
notes: humanized SP34 variant, IgG1 LALAPG; also called VH3234/VL7461 IgG
- binding result: binds

B8: PR001849 (antibody, human IgG1, lambda, L234A L235A, V domains shown)
VH: EVQLVESGGGLVQPGGSLKLSCAASGFTFSTYAMNWVRQASGKGLEWVGRIRSKYNNYATYYADSVKDRFTISRDDSKSTLYLQMNSLKTEDTAVYYCVRHGNFGNSYVSWFAYWGQGTLVTVSS
VL: QAVVTQEPSLTVSPGGTVTLTCRSSTGAVTTSNYANWVQQKPGQAPRGLIGGTNKRAPWTPARFSGSLLGDKAALTLLGAQPEDEAEYFCALWYSNLWVFGGGTKLTVLG
notes: humanized SP34 variant, IgG1 LALAPG; also called VH3732/VL7461 IgG
- binding result: binds
